Experiment [1] addresses T1, c-erbB-2 ECD with a Ser-Gly-His6 C-terminal fusion (UniProt P04626 23-652).
T1 construct: extracellular domain; Expressed from CHO cells, IMAC purified; coupled to a CM5 chip, coated on plates, or biotinylated with NHS-LC-biotin; also called c-erbB-2 extracellular domain; biotinylated c-erbB-2 ECD
Kind of experiment: SPR BIAcore. On the procedure: All assays were performed in triplicate. Briefly, […] of radioiodinated sFv was added to 5×10^6 SK-OV cells in the presence of increasing concentrations of unlabeled sFv from the same preparation. After a 30 minute incubation at 20° C., the samples were washed with PBS at 4° C. and centrifuged at 500 g. The amount of labeled sFv bound to the cells was determined by counting the pellets in a gamma counter and the K_a, and K_d were calculated using the EBDA program (V 2.0, G. A. McPherson, 1983). The K_d of all the other isolated sFv were determined using surface plasmon resonance in a BIAcore (Pharmacia). In a BIAcore flow cell, approximately 1400 resonance units (RU) of c-erbB-2 ECD (25 μg/ml in 10 mM sodium acetate, pH 4.5) was coupled to a CM5 sensor chip (Johnsson et al. (1991), supra). Association and dissociation-rates were measured under continuous flow of […] using a concentration range from 50 to 800 nM. Rate constant $kon$ was determined from a plot of (1(dR/dt))/t vs concentration (Karlsson et al. (1991), supra). Rate constant $Hoff$ was determined from the dissociation part of the sensorgram at the highest concentration of sFv analyzed.
Mutants obtained by combining mutations of C6MH3-B1 or C6MH3-B47 with mutations from D library clones (D1, D2, D3, D5, D6). Rate constants $kon$ and $koff$ were measured by SPR in a BIAcore, and the K_d calculated.
Background: Surface plasmon resonance follows binding to a sensor surface in real time, without labels.

The target in experiment [2] is T1, c-erbB-2 ECD with a Ser-Gly-His6 …. Kind of experiment: SPR BIAcore. This is another data set of the same source.

Substitutions are numbered along the chain they refer to. In names and notes the source's numbering stands. Read-outs that look alike come from different tables or passages of the source.

B1: C6-9L1 (scFv)
scFv: QVQLLQSGAELKKPGESLKISCKGSGYSFTSYWIAWVRQMPGKGLEYMGLIYPGDSDTKYSPSFQGQVTISVDKSVSTAYLQWSSLKPSDSAVYFCARHDVGYCSSSNCAKWPEYFQHWGQGTLVTVSSGGGGSGGGGSGGGGSQSVLTQPPSVSGAPGQWVTISCSGSSSNIGNNYVSWYQQLPGTAPKLLIYDNNKRPSGVPDRFSGSQSGTSASLAISGLRSEDEADYYCASWDYTLSGWVFGGGTKLTVLG
notes: C6L1 with the VL CDR3 of C6ML3-9
For B1, in experiment [1], binding was characterised by a dissociation constant (Kd) of 0.33 nM, the “Kd (C6.5)/Kd (mut)” value came to 49, the “Kd (parent)/Kd (mut)” value is 3 and the off-rate constant (koff) turned out to be 0.0003 s⁻¹. This molecule yielded a kon in experiment [1] of 920000 M⁻¹ s⁻¹.

B2: C6.5S100bA (scFv)
scFv: QVQLLQSGAELKKPGESLKISCKGSGYSFTSYWIAWVRQMPGKGLEYMGLIYPGDSDTKYSPSFQGQVTISVDKSVSTAYLQWSSLKPSDSAVYFCARHDVGYCSASNCAKWPEYFQHWGQGTLVTVSSGGGGSGGGGSGGGGSQSVLTQPPSVSAAPGQKVTISCSGSSSNIGNNYVSWYQQLPGTAPKLLIYGHTNRPAGVPDRFSGSKSGTSASLAISGFRSEDEADYYCAAWDDSLSGWVFGGGTKLTVLG
notes: C6.5 VH CDR3 scan mutant; Kabat numbering
Turning to B2, in experiment [2], binding was characterised by a dissociation constant (Kd) of 47 nM, the “Kd (mutant)/Kd (C6.5)” value was determined as 2.9, the koff came to 0.016 s⁻¹ and the kon came out at 340000 M⁻¹ s⁻¹.

B3: C6.5C100S/C100eS (scFv)
scFv: B2 scFv with C104S, A106S, C109S
notes: as for B2
Regarding B3, in experiment [2], binding was characterised by a dissociation constant (Kd) of 280 nM, the “Kd (mutant)/Kd (C6.5)” value was found to be 17.5, the dissociation rate constant (koff) is 0.138 s⁻¹ and the kon is 500000 M⁻¹ s⁻¹.

B4: C6-B1D1 (scFv)
scFv: QVQLLQSGAELKKPGESLKISCKGSGYSFTSYWIAWVRQMPGKGLEYMGLIYPGDSDTKYSPSFQGQVTISVDKSVSTAYLQWSSLKPSDSAVYFCARHDVGYCTDRTCAKWPEWLHVWGQGTLVTVSSGGGGSGGGGSGGGGSQSVLTQPPSVSAAPGQKVTISCSGSSSNIGNNYVSWYQQLPGTAPKLLIYGHTNRPAGVPDRFSGSKSGTSASLAISGFRSEDEADYYCASWDYTLSGWVFGGGTKLTVLG
notes: Combined B and D library mutations on C6ML3-9
For B4, in experiment [1], the Kd is 0.032 nM, the “Kd (C6.5)/Kd (mut)” value was 500, the “Kd (parent)/Kd (mut)” value is 3.8 and the koff was 1.5e-05 s⁻¹. For the same molecule, in experiment [1], the kon was 470000 M⁻¹ s⁻¹.

B5: C6.5S100cA (scFv)
scFv: B2 scFv with A106S, S107A
notes: as for B2
In the case of B5, in experiment [2], binding was characterised by a dissociation constant (Kd) of 24 nM, the “Kd (mutant)/Kd (C6.5)” value came to 1.5, the koff was determined as 0.011 s⁻¹ and the kon came out at 450000 M⁻¹ s⁻¹.

B6: C6.5F100lA (scFv)
scFv: B2 scFv with A106S, F116A
notes: C6.5 VH CDR3 scan mutant; Kabat numbering; also called F1001A
On to B6, for which, in experiment [2], the affinity, expressed as Kd, was 454 nM; the “Kd (mutant)/Kd (C6.5)” value was found to be 28.4; the koff was 0.05 s⁻¹; the kon was 110000 M⁻¹ s⁻¹.

B7: C6.5N100dA (scFv)
scFv: B2 scFv with A106S, N108A
notes: as for B2
For B7, in experiment [2], binding was put at a Kd of 29 nM, the “Kd (mutant)/Kd (C6.5)” value was 1.8, the koff is 0.012 s⁻¹ and the kon stood at 410000 M⁻¹ s⁻¹.

B8: C6-B47D3 (scFv)
scFv: B4 scFv with T108S, H117D, V118N
notes: Combined B47 and D3 mutations on C6ML3-9
On to B8, for which, in experiment [1], the affinity, expressed as Kd, was 0.048 nM; the “Kd (C6.5)/Kd (mut)” value amounted to 333; the “Kd (parent)/Kd (mut)” value turned out to be 2.3; the off-rate constant (koff) came to 3.2e-05 s⁻¹. Besides, in experiment [1], the kon stood at 660000 M⁻¹ s⁻¹.

B9: C6-B47D5 (scFv)
scFv: B4 scFv with T108S, L116M, H117Q, V118M
notes: Combined B47 and D5 mutations on C6ML3-9
As to B9, in experiment [1], the affinity, expressed as Kd, was 0.063 nM; the “Kd (C6.5)/Kd (mut)” value turned out to be 254; the “Kd (parent)/Kd (mut)” value is 1.7; the koff is 3.9e-05 s⁻¹. For the same molecule, the on-rate (kon) in experiment [1] was 620000 M⁻¹ s⁻¹.

B10: C6-B47D6 (scFv)
scFv: B4 scFv with T108S, L116M, H117Y, V118P
notes: Combined B47 and D6 mutations on C6ML3-9
As to B10, in experiment [1], binding was put at a Kd of 0.051 nM, the “Kd (C6.5)/Kd (mut)” value stood at 314, the “Kd (parent)/Kd (mut)” value came to 2.2 and the koff was 3e-05 s⁻¹. The on-rate constant (kon) in experiment [1] worked out at 590000 M⁻¹ s⁻¹.

B11: C6-B1D5 (scFv)
scFv: B4 scFv with L116M, H117Q, V118M
notes: Combined B1 and D5 mutations on C6ML3-9
On to B11, for which, in experiment [1], the equilibrium dissociation constant (Kd) is 0.035 nM, the “Kd (C6.5)/Kd (mut)” value was 457, the “Kd (parent)/Kd (mut)” value was determined as 3.4 and the dissociation rate constant (koff) turned out to be 1.8e-05 s⁻¹. Also, in experiment [1], the kon was found to be 510000 M⁻¹ s⁻¹.

B12: C6.5D96A (scFv)
scFv: B2 scFv with D100A, A106S
notes: as for B2
As for B12, in experiment [2], the Kd turned out to be 45 nM, the “Kd (mutant)/Kd (C6.5)” value was 2.8, the koff is 0.01 s⁻¹ and the kon stood at 220000 M⁻¹ s⁻¹.

B13: C6-B1D6 (scFv)
scFv: B4 scFv with L116M, H117Y, V118P
notes: Combined B1 and D6 mutations on C6ML3-9
Consider B13, for which, in experiment [1], the affinity, expressed as Kd, was 0.032 nM; the “Kd (C6.5)/Kd (mut)” value is 500; the “Kd (parent)/Kd (mut)” value is 3.8; the koff is 1.3e-05 s⁻¹. For the same molecule, the kon in experiment [1] is 410000 M⁻¹ s⁻¹.

B14: C6-12L1 (scFv)
scFv: B1 scFv with S235A, T239S, L240R
notes: C6L1 with the VL CDR3 of C6ML3-12
Regarding B14, in experiment [1], the Kd came out at 0.19 nM, the “Kd (C6.5)/Kd (mut)” value came out at 84, the “Kd (parent)/Kd (mut)” value was 8.4 and the koff was 0.00013 s⁻¹. This molecule displayed a kon in experiment [1] of 670000 M⁻¹ s⁻¹.

B15: C6.5Y99A (scFv)
scFv: B2 scFv with Y103A, A106S
notes: as for B2
For B15, in experiment [2], the Kd came out at 59 nM, the “Kd (mutant)/Kd (C6.5)” value amounted to 3.7, the koff worked out at 0.053 s⁻¹ and the kon was found to be 900000 M⁻¹ s⁻¹.

B16: C6-B1D3 (scFv)
scFv: B4 scFv with H117D, V118N
notes: Combined B1 and D3 mutations on C6ML3-9
As to B16, in experiment [1], the dissociation constant (Kd) was found to be 0.013 nM, the “Kd (C6.5)/Kd (mut)” value was 1230, the “Kd (parent)/Kd (mut)” value is 9.2 and the koff came to 8e-06 s⁻¹. In addition, the kon in experiment [1] came out at 640000 M⁻¹ s⁻¹.

B17: C6.5S100aA (scFv)
scFv: B2 scFv with S105A, A106S
notes: as for B2
As to B17, in experiment [2], the Kd turned out to be 28 nM, the “Kd (mutant)/Kd (C6.5)” value was determined as 1.8, the off-rate (koff) was 0.013 s⁻¹ and the kon stood at 470000 M⁻¹ s⁻¹.

B18: C6.5P100iA (scFv)
scFv: B2 scFv with A106S, P113A
notes: as for B2
For the molecule B18, in experiment [2], binding was put at a Kd of 10 nM, the “Kd (mutant)/Kd (C6.5)” value was found to be 0.6, the off-rate constant (koff) was found to be 0.011 s⁻¹ and the kon was found to be 1.05e+06 M⁻¹ s⁻¹.

B19: C6.5K100gA (scFv)
scFv: B2 scFv with A106S, K111A
notes: as for B2
Turning to B19, in experiment [2], binding was put at a Kd of 9.8 nM, the “Kd (mutant)/Kd (C6.5)” value worked out at 0.6, the off-rate (koff) was 0.0042 s⁻¹ and the on-rate (kon) amounted to 430000 M⁻¹ s⁻¹.

B20: C6-B1D2 (scFv)
scFv: B4 scFv with H117G
notes: Combined B1 and D2 mutations on C6ML3-9
Consider B20, for which, in experiment [1], the Kd was determined as 0.015 nM, the “Kd (C6.5)/Kd (mut)” value is 1070, the “Kd (parent)/Kd (mut)” value worked out at 8 and the koff is 1e-05 s⁻¹. This molecule came in with an on-rate constant (kon) in experiment [1] of 690000 M⁻¹ s⁻¹.

B21: C6-B47D1 (scFv)
scFv: B4 scFv with T108S
notes: Combined B47 and D1 mutations on C6ML3-9
B21: in experiment [1], the affinity, expressed as Kd, was 0.068 nM; the “Kd (C6.5)/Kd (mut)” value is 235; the “Kd (parent)/Kd (mut)” value is 1.6; the dissociation rate constant (koff) was determined as 4.8e-05 s⁻¹. The molecule further registered a kon in experiment [1] of 710000 M⁻¹ s⁻¹.

B22: C6.5V97A (scFv)
scFv: B2 scFv with V101A, A106S
notes: as for B2
B22: in experiment [2], the Kd turned out to be 48 nM, the “Kd (mutant)/Kd (C6.5)” value was determined as 3, the off-rate (koff) was determined as 0.015 s⁻¹ and the kon came to 310000 M⁻¹ s⁻¹.

B23: C6.5H102A (scFv)
scFv: B2 scFv with A106S, H118A
notes: as for B2
For the molecule B23, in experiment [2], the Kd was 19 nM, the “Kd (mutant)/Kd (C6.5)” value is 1.2, the koff came to 0.011 s⁻¹ and the kon was 590000 M⁻¹ s⁻¹.

B24: C6.5Q101A (scFv)
scFv: B2 scFv with A106S, Q117A
notes: as for B2
Consider B24, for which, in experiment [2], binding was put at a Kd of 8.2 nM, the “Kd (mutant)/Kd (C6.5)” value was 0.5, the koff came to 0.0098 s⁻¹ and the on-rate constant (kon) was 1.2e+06 M⁻¹ s⁻¹.

B25: C6-B47D2 (scFv)
scFv: B4 scFv with T108S, H117G
notes: Combined B47 and D2 mutations on C6ML3-9
Take B25: in experiment [1], the affinity, expressed as Kd, was 0.044 nM; the “Kd (C6.5)/Kd (mut)” value was determined as 364; the “Kd (parent)/Kd (mut)” value worked out at 2.5; the koff is 4.3e-05 s⁻¹. This molecule also registered an on-rate constant (kon) in experiment [1] of 980000 M⁻¹ s⁻¹.

As usually defined, the Kd is the free concentration of one partner at which half of the binding sites on the other are occupied at equilibrium, for simple one-to-one binding. Read a high Kd as a looser complex. One may read the koff as the rate constant with which the complex falls apart. Higher therefore signals fast dissociation. Broadly, the kon is a measure of how fast the partners come together. Low readings indicate slower complex formation, high ones faster complex formation.
